Consider 30 molecules from patent US20240116985A1, “STAPLED PEPTIDES AND METHODS THEREOF” (priority 2020, published 2024).

First the molecules themselves.
B1: I-2447 (peptide)
peptide: Ac-[αAllylPro]N[Cha][B5(30)]DT[hSer]AFL[PyrS2″]F[Bta]Q-NH2
modifications: staple 1-4, 4-11; not fully specified; printed as Ac-PL3-Asn-Cha-B5-Asp-Thr-Hse-Ala-Phe-Leu-PyrS2-Phe-BztA-Gln-NH2
B2: I-2454 (peptide)
peptide: Ac-[αAllylPro]N[Cha][B5(30)]DT[hSer]AFL[PyrS2″]F[Bta]K-NH2
modifications: staple 1-4, 4-11; not fully specified; printed as Ac-PL3-Asn-Cha-B5-Asp-Thr-Hse-Ala-Phe-Leu-PyrS2-Phe-BztA-Lys-NH2; also: staple -CH=CH- reduced to -CH2-CH2-
B3: I-2452 (peptide)
peptide: Ac-[αAllylPro]N[Cha][B5(30)]DQ[Lys(iPr)]AFL[PyrS2″][3Thi][Bta]Q-NH2
modifications: staple 1-4, 4-11; not fully specified; printed as Ac-PL3-Asn-Cha-B5-Asp-Gln-iPrLys-Ala-Phe-Leu-PyrS2-3Thi-BztA-Gln-NH2; also: staple -CH=CH- reduced to -CH2-CH2-
B4: I-2455 (peptide)
peptide: Ac-[αAllylPro]N[Cha][B5(30)]DT[Lys(iPr)]AFL[PyrS2″]F[Bta]K-NH2
modifications: staple 1-4, 4-11; not fully specified; printed as Ac-PL3-Asn-Cha-B5-Asp-Thr-iPrLys-Ala-Phe-Leu-PyrS2-Phe-BztA-Lys-NH2; also: staple -CH=CH- reduced to -CH2-CH2-
B5: I-2451 (peptide)
peptide: Ac-[αAllylPro]N[Cha][B5(30)]DQ[hSer]AFL[PyrS2″][3Thi][Bta]Q-NH2
modifications: staple 1-4, 4-11; not fully specified; printed as Ac-PL3-Asn-Cha-B5-Asp-Gln-Hse-Ala-Phe-Leu-PyrS2-3Thi-BztA-Gln-NH2; also: staple -CH=CH- reduced to -CH2-CH2-
B6: I-2446 (peptide)
peptide: Ac-[αAllylPro]N[Cha][B5(5)]DQ[Lys(iPr)]AFL[PyrS2″][3Thi][Bta]Q-NH2
modifications: staple 1-4, 4-11; not fully specified; printed as Ac-PL3-Asn-Cha-B5-Asp-Gln-iPrLys-Ala-Phe-Leu-PyrS2-3Thi-BztA-Gln-NH2
B7: I-2444 (peptide)
peptide: Ac-[αAllylPro]D[tBuAla][B5(30)]D[Phe(3-COOH)]AAFL[PyrS2″][Phe(2-CF3)][Bta]S[(3C)TriAzdLys]-NH2
modifications: staple 1-4, 4-11; not fully specified; printed as Ac-PL3-Asp-Npg-B5-Asp-3COOHF-Ala-Ala-Phe-Leu-PyrS2-2F3MeF-BztA-Ser-[3C]TriAzdLys-NH2

Starred links: 1 amine or outer side, 2 acyl side, 3 side chain; linkers in the order of their positions; H or OH if unused. Positions of bridges follow the written chain, without caps; N, C: chain ends. Non-standard residues stand in square brackets, D forms with d. Primed or numbered codes have the meaning given here. *: point of attachment. PyrS2″ = (S)-3-amino-1-((pent-4-en-1-yloxy)carbonyl)pyrrolidine-3-carboxylic acid (stapling residue), C=CCCCOC(=O)N1CC[C@@](N[*:1])(C(=O)[*:2])C1; B5(30) = 2-amino-2-(pent-4-en-1-yl)hept-6-enoic acid (2,2-bis(4-pentenyl)glycine, stitching residue), C=CCCCC(CCCC=C)(N[*:1])C(=O)[*:2]; B5(4) = 2,2-bis(4-pentenyl)glycine = 2-amino-2-(pent-4-en-1-yl)hept-6-enoic acid (stitching residue), C=CCCCC(CCCC=C)(N[*:1])C(=O)[*:2]; B5(5) = 2,2-bis(4-pentenyl)glycine, 2-amino-2-(pent-4-en-1-yl)hept-6-enoic acid (stitching residue), C=CCCCC(CCCC=C)(N[*:1])C(=O)[*:2]; (3C)TriAzdLys = (R)-2-amino-6-(4-propyl-1H-1,2,3-triazol-1-yl)hexanoic acid, CCCc1cn(CCCC[C@@H](N[*:1])C(=O)[*:2])nn1; B5(3) = 2,2-bis(4-pentenyl)glycine (stitching residue), C=CCCCC(CCCC=C)(N[*:1])C(=O)[*:2]; Phe(3-CF3) = N[C@@H](Cc1cccc(C(F)(F)F)c1)C(=O)O; Phe(3-COOH) = N[C@@H](Cc1cccc(C(=O)O)c1)C(=O)O; Phe(2-CF3) = N[C@@H](Cc1ccccc1C(F)(F)F)C(=O)O; Phe(2-Cl) = N[C@@H](Cc1ccccc1Cl)C(=O)O; 1Nal = N[C@@H](Cc1cccc2ccccc12)C(=O)O; 2Nal = N[C@@H](Cc1ccc2ccccc2c1)C(=O)O; Bta = N[C@@H](Cc1csc2ccccc12)C(=O)O; Lys(iPr) = CC(C)NCCCC[C@H](N)C(=O)O; αAllylPro = C=CC[C@@]1(C(=O)O)CCCN1; tBuAla = CC(C)(C)C[C@H](N)C(=O)O; 3Thi = N[C@@H](Cc1ccsc1)C(=O)O; Cha = N[C@@H](CC1CCCCC1)C(=O)O; Butoxycarbonyl = CCCCOC(=O)*; hSer = N[C@@H](CCO)C(=O)O

The first experiment deals with full-length beta-Catenin (Uniprot ID P35222) (Homo sapiens (Human)) (UniProt P35222). Put plainly: fluorescence polarization competition against 5FAM-TCF4(10-53) on full-length beta-catenin. On the technique in general: Fluorescence polarisation rises when a labelled molecule tumbles more slowly, as on binding a larger partner.
Target sequence in this assay (P35222 whole entry): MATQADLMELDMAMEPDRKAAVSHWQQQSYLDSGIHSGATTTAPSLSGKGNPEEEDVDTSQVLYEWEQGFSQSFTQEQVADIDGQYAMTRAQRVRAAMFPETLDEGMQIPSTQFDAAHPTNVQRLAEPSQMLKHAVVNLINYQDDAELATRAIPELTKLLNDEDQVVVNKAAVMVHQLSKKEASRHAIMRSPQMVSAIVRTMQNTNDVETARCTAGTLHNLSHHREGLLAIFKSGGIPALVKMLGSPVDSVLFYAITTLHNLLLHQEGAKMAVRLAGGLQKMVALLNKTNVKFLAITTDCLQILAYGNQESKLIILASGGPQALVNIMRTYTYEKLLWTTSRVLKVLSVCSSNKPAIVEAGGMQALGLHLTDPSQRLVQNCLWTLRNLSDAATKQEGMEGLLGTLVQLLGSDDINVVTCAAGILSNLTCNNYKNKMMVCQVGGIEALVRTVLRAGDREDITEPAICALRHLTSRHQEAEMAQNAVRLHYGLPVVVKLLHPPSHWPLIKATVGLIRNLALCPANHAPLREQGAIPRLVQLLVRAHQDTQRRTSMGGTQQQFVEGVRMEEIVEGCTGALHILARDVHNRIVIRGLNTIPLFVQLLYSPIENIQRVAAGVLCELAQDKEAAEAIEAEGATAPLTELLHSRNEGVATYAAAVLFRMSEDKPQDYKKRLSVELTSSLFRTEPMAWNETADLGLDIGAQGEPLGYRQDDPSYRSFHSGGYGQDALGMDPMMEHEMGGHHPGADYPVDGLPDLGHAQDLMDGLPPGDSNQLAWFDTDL
With Ac-[αAllylPro]D[tBuAla][B5(3)]DTAAFT[PyrS2″]F[1Nal]S-NH2 (staple 1-4; staple 4-11 (inferred); not fully specified; printed as Ac-PL3-Asp-Npg-B5-Asp-Thr-Ala-Ala-Phe-Thr-PyrS2-Phe-1NapA-Ser-NH2) [I-1272], the 50% inhibitory concentration (IC50) (usually the point on the concentration scale where inhibition reaches its midpoint) amounted to 331 nM.
Ac-[αAllylPro]D[tBuAla][B5(3)]DTAAFT[PyrS2″][Phe(3-CF3)][Bta]S-NH2 (staple 1-4; staple 4-11 (inferred); not fully specified; printed as Ac-PL3-Asp-Npg-B5-Asp-Thr-Ala-Ala-Phe-Thr-PyrS2-3F3MeF-BztA-Ser-NH2) [I-1271] gave an IC50 of 682 nM.
The molecule Ac-[αAllylPro]D[tBuAla][B5(3)]DTAAFT[PyrS2″][2Nal][Bta]S-NH2 (staple 1-4; staple 4-11 (inferred); not fully specified; printed as Ac-PL3-Asp-Npg-B5-Asp-Thr-Ala-Ala-Phe-Thr-PyrS2-2NapA-BztA-Ser-NH2) [I-1270] had a half-inhibitory concentration (IC50) of 3700 nM.

A further experiment has the same target. Put plainly: fluorescence polarization competition against 5FAM-TCF4(10-53), full-length beta-catenin.
Target sequence in this assay (P35222 whole entry): as above
In turn, Butoxycarbonyl-[αAllylPro]D[tBuAla][B5(4)]D[Phe(3-COOH)]AAFL[PyrS2″][Phe(2-Cl)][Bta]A-NH2 (staple 1-4, 4-11) [I-2304] had an IC50 of 511 nM.

A further experiment shares this target. Put plainly: fluorescence polarization competition; 10 nM full-length beta-catenin + 10 nM 5FAM-TCF4(10-53) probe, peptide titrated 10 uM to 5 nM.
Target sequence in this assay (P35222 2-781 limits assumed): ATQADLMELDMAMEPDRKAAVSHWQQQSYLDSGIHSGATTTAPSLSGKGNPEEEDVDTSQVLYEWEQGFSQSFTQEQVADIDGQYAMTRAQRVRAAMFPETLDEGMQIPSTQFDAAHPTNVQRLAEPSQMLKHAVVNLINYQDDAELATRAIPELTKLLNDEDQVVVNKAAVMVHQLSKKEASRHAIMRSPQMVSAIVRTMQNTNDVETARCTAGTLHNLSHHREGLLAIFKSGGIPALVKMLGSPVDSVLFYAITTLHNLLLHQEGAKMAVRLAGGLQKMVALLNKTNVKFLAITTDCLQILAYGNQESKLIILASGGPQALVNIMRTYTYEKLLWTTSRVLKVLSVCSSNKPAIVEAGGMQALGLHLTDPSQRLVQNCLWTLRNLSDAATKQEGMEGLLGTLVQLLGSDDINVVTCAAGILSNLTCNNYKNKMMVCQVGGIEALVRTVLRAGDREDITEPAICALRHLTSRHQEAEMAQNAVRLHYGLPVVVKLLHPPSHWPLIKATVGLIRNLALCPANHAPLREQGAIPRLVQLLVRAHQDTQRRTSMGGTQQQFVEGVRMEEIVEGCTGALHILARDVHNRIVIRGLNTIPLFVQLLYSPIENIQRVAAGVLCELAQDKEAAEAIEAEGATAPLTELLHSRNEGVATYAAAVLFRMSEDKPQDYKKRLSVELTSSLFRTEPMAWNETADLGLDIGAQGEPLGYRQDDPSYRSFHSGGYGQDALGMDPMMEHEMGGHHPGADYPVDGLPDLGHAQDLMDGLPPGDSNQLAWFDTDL
On to Ac-[αAllylPro]N[Cha][B5(4)]DT[Lys(iPr)]AFL[PyrS2″]F[Bta]K-NH2 (staple 1-4, 4-11) [I-2450], for which the IC50 was found to be 63 nM.
Regarding Ac-[αAllylPro]D[tBuAla][B5(4)]D[Phe(3-COOH)]QAFL[PyrS2″][Phe(2-CF3)][RbMeBztA]A-NH2 (staple 1-4, 4-11) [I-2459], the IC50 was determined as 56 nM.
With B1, the IC50 was found to be 3250 nM.
On the same count and under the same terms, then B2, with 10000 nM; and Ac-[αAllylPro]N[Cha][B5(30)]DT[hSer]AFL[PyrS2″]F[Bta]K-NH2 (staple 1-4, 4-11) [I-2449], with 10000 nM; and Ac-[αAllylPro]N[tBuAla][B5(5)]DHAAFL[PyrS2″]F[Bta]Q-NH2 (staple 1-4, 4-11) [I-2442], with 282 nM.
The same measure, in the same setting: next, B3: 7200 nM.
Ac-[αAllylPro][hSer][tBuAla][B5(5)]DQAAFL[PyrS2″]F[Bta]Q-NH2 (staple 1-4, 4-11) [I-2443]: the half-inhibitory concentration (IC50) amounted to 6670 nM.
Take B4: the IC50 stood at 10000 nM.
On to B5, for which the IC50 was 4860 nM.
For Ac-[αAllylPro]D[tBuAla][B5(4)]D[Phe(3-COOH)]QAFL[PyrS2″][Phe(2-CF3)][SbMeBztA]A-NH2 (staple 1-4, 4-11) [I-2457], the IC50 was determined as 52 nM.
Same read-out and setting: then B6, with 93 nM; and B7, with 121 nM.
Consider Ac-[αAllylPro]D[tBuAla][B5(4)]D[Phe(3-COOH)]QAFL[PyrS2″][Phe(2-CF3)][2Nal]A-NH2 (staple 1-4, 4-11) [I-2461], for which the IC50 worked out at 75 nM.

A further experiment shares this target. Put plainly: fluorescence polarization competition; full-length beta-catenin + 5FAM-TCF4(10-53) probe.
Target sequence in this assay (P35222 whole entry): as the sequence (P35222 whole entry) above
Take Ac-[αAllylPro]D[tBuAla][B5(3)]DTAAFT[PyrS2″]F[1Nal]S-NH2 (staple 1-4; staple 4-11 (inferred); not fully specified; printed as Ac-PL3-Asp-Npg-B5-Asp-Thr-Ala-Ala-Phe-Thr-PyrS2-Phe-1NapA-Ser-NH2) [I-1272]: the EC50 (as a rule, the concentration giving half of the maximal effect) turned out to be 331 nM.
On the same count and under the same terms, next, Ac-[αAllylPro]D[tBuAla][B5(3)]DTAAFT[PyrS2″][Phe(3-CF3)][Bta]S-NH2 (staple 1-4; staple 4-11 (inferred); not fully specified; printed as Ac-PL3-Asp-Npg-B5-Asp-Thr-Ala-Ala-Phe-Thr-PyrS2-3F3MeF-BztA-Ser-NH2) [I-1271]: 682 nM; Ac-[αAllylPro]D[tBuAla][B5(3)]DTAAFT[PyrS2″][2Nal][Bta]S-NH2 (staple 1-4; staple 4-11 (inferred); not fully specified; printed as Ac-PL3-Asp-Npg-B5-Asp-Thr-Ala-Ala-Phe-Thr-PyrS2-2NapA-BztA-Ser-NH2) [I-1270]: 3700 nM.

The target is the same in another experiment. Put plainly: fluorescence polarization competition; full-length beta-catenin, 5FAM-TCF4(10-53) probe displaced.
Target sequence in this assay (P35222 whole entry): as above
As for Ac-[αAllylPro]D[tBuAla][B5(5)]QDAAFN[PyrS2″][3Thi][Bta]Q-NH2 (staple 1-4, 4-11) [Ac-PL3-Asp-Npg-B5-Gln-Asp-Ala-Ala-Phe-Asn-PyrS2-3Thi-BztA-Gln-NH2], the IC50 came out at 56 nM.
Turning to Ac-[αAllylPro]Q[tBuAla][B5(5)]DDAAFN[PyrS2″][3Thi][Bta]Q-NH2 (staple 1-4, 4-11) [Ac-PL3-Gln-Npg-B5-Asp-Asp-Ala-Ala-Phe-Asn-PyrS2-3Thi-BztA-Gln-NH2], the IC50 worked out at 389 nM.
The same measure, in the same setting: then Ac-[αAllylPro]D[tBuAla][B5(5)]LDAAFN[PyrS2″][3Thi][Bta]Q-NH2 (staple 1-4, 4-11) [Ac-PL3-Asp-Npg-B5-Leu-Asp-Ala-Ala-Phe-Asn-PyrS2-3Thi-BztA-Gln-NH2], with 8660 nM; and Ac-[αAllylPro]N[tBuAla][B5(3)]DDAAFL[PyrS2″][3Thi][Bta]Q-NH2 (staple 1-4, 4-11) [Ac-PL3-Asn-Npg-B5-Asp-Asp-Ala-Ala-Phe-Leu-PyrS2-3Thi-BztA-Gln-NH2], with 14 nM.
Ac-[αAllylPro]D[tBuAla][B5(5)]SDAAFL[PyrS2″][3Thi][Bta]Q-NH2 (staple 1-4, 4-11) [Ac-PL3-Asp-Npg-B5-Ser-Asp-Ala-Ala-Phe-Leu-PyrS2-3Thi-BztA-Gln-NH2] gave an IC50 of 479 nM.
Same read-out and setting: next, Ac-[αAllylPro]D[tBuAla][B5(5)]SDAAFN[PyrS2″][3Thi][Bta]Q-NH2 (staple 1-4, 4-11) [Ac-PL3-Asp-Npg-B5-Ser-Asp-Ala-Ala-Phe-Asn-PyrS2-3Thi-BztA-Gln-NH2]: 349 nM; Ac-[αAllylPro]D[tBuAla][B5(5)]QDAAFL[PyrS2″][3Thi][Bta]Q-NH2 (staple 1-4, 4-11) [Ac-PL3-Asp-Npg-B5-Gln-Asp-Ala-Ala-Phe-Leu-PyrS2-3Thi-BztA-Gln-NH2]: 115 nM; Ac-[αAllylPro]S[tBuAla][B5(5)]DDAAFN[PyrS2″][3Thi][Bta]Q-NH2 (staple 1-4, 4-11) [Ac-PL3-Ser-Npg-B5-Asp-Asp-Ala-Ala-Phe-Asn-PyrS2-3Thi-BztA-Gln-NH2]: 511 nM.
On the same count and under the same terms, then Ac-[αAllylPro]D[tBuAla][B5(5)][hSer]DAAFN[PyrS2″][3Thi][Bta]Q-NH2 (staple 1-4, 4-11) [Ac-PL3-Asp-Npg-B5-Hse-Asp-Ala-Ala-Phe-Asn-PyrS2-3Thi-BztA-Gln-NH2], with 116 nM; and Ac-[αAllylPro]D[tBuAla][B5(5)][hSer]DAAFL[PyrS2″][3Thi][Bta]Q-NH2 (staple 1-4, 4-11) [Ac-PL3-Asp-Npg-B5-Hse-Asp-Ala-Ala-Phe-Leu-PyrS2-3Thi-BztA-Gln-NH2], with 216 nM; and Ac-[αAllylPro]Q[tBuAla][B5(5)]DDAAFL[PyrS2″][3Thi][Bta]Q-NH2 (staple 1-4, 4-11) [Ac-PL3-Gln-Npg-B5-Asp-Asp-Ala-Ala-Phe-Leu-PyrS2-3Thi-BztA-Gln-NH2], with 305 nM.
In turn, Ac-[αAllylPro]S[tBuAla][B5(5)]DDAAFL[PyrS2″][3Thi][Bta]Q-NH2 (staple 1-4, 4-11) [Ac-PL3-Ser-Npg-B5-Asp-Asp-Ala-Ala-Phe-Leu-PyrS2-3Thi-BztA-Gln-NH2] registered an IC50 of 550 nM.
